Changes are numbered by the printed parent chain. Names may count otherwise. Each block holds one binder with its values, some of them ahead of it.
Molecular target: V5-LC3, Q9GZQ8
Experiment: co-immunoprecipitation (Flag IP), western blot band quantification
Settings: chain shown with the change; HEK293T cells expressing V5-LC3 and Flag-RhoC; n = 3; parent: est. 4.6; read off a plot; scale: relative IP LC3-II protein level

B1: Flag-tagged RhoC (wild type), P08134 F154A; L157A (protein)
chain: MAAIRKKLVIVGDGACGKTCLLIVFSKDQFPEVYVPTVFENYIADIEVDGKQVELALWDTAGQEDYDRLRPLSYPDTDVILMCFSIDSPDSLENIPEKWTPEVKHFCPNVPIILVGNKKDLRQDEHTRRELAKMKQEPVRSEEGRDMANRISAAGYAECSAKTKEGVREVFEMATRAGLQVRKNKRRRGCPIL
response: 1.2

B3: Flag-tagged RhoC (wild type), P08134 F30A; V33A (protein)
chain: B1 chain with F30A, V33A, A154F, A157L
response: 4.7

Continued, values first:

response: 2.1
B2: Flag-tagged RhoC (wild type), P08134 Y66A; L69A (protein)
chain: B1 chain with Y66A, L69A, A154F, A157L

response: 1
B4: Flag-tagged RhoC (wild type), P08134 Y66A; L69A; F154A; L157A (protein)
chain: B1 chain with Y66A, L69A

— publication PMC11861591
